Where two headings read alike, the source gives them in different places. Square brackets hold non-standard residues; d marks the D form. Ends that are not written are not given here. pS = N[C@@H](COP(=O)(O)O)C(=O)O
B1: peptide C^P (peptide)
peptide: RRL[pS]FFYILLDLYLDAPGVC(acetamidofluorescein)-NH2
notes: Chimeric alpha-helical portion of the PPKID peptides (residues 15-33); also called Peptide C (phosphorylated)
B2: Bak peptide (peptide)
peptide: GQVGRQLAIIGDDINRYC-NH2
modifications: not fully specified (residue 18)
notes: Labelled form used for Kd determinations carries an additional carboxy-terminal YC; The printed mass (1724) looks too small for residues 72-94; also called Bak BH3 peptide; Bak (72-94)
B3: p4099 (designed binder)
peptide: GPSQPTYPGDDAPVEDLIRFVGRLLAYFGDTINRYC(5‑iodoacetamidofluorescein)-NH2
notes: also called p4121-flu (labelled form, by order and mass)

Key:
HisKIX [1] = target: T1, HisKIX (UniProt P45481 586-672); assay: FP with HisKIX
T1 construct: range 586-672; the residue numbers fit mouse CBP; also called His-tagged CBP KIX domain; CBP KIX; not shown: amino-terminal hexahistidine tag and linker of pET15b

calmodulin (Sigma) [2] = target: T2, calmodulin (Sigma) (UniProt P62157 2-149); assay: FP with calmodulin
calmodulin (Sigma) [3] = target: T2, calmodulin (Sigma); assay: FP; specificity ratio
calmodulin (Sigma) [4] = target: T2, calmodulin (Sigma); assay: FP, 50 nM fluorescein-labelled peptide titrated with calmodulin, 25 C
[5] = target: carbonic anhydrase II (Sigma); assay: FP, 50 nM fluorescein-labelled peptide titrated with carbonic anhydrase II, 25 C
Target sequence in this assay (P00921 2-260): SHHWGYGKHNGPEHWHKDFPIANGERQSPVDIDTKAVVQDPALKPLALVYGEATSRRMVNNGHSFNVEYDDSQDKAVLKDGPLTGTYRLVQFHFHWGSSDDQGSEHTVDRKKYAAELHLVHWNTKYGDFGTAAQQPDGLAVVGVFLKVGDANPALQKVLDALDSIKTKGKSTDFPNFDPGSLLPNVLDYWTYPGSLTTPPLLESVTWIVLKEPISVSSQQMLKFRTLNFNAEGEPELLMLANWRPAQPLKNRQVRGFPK

[6] = target: carbonic anhydrase II (Sigma); assay: fluorescence emission titration, fluorescein-labelled peptide + carbonic anhydrase II, PBS
Target sequence in this assay (chain, as listed by the source): as the sequence (P00921 2-260) above

[7] = target: T3, Human recombinant Bcl-2 (1-205), soluble GST-fusion (Santa Cruz Biotechnology) (human, UniProt P10415 1-205); assay: fluorescence emission titration, fluorescein-labelled peptide + serially diluted Bcl-2, 4 C, PBS
T3 construct: Bought; also called GST-Bcl-2; not shown: glutathione S-transferase (GST) fusion partner

calmodulin (Sigma) [8] = target: T2, calmodulin (Sigma); assay: fluorescence emission titration, fluorescein-labelled peptide + calmodulin (HEPES, KCl, CaCl2 buffer)
[9] = target: T3, Human recombinant Bcl-2 (1-205), …; assay: fluorescence emission titration with Bcl-2
calmodulin (Sigma) [10] = target: T2, calmodulin (Sigma); assay: FP with calmodulin (text value; Table 2 prints 52 ± 12)
[11] = target: T4, CBP KIX, wild type (Example 20) (UniProt P45481 586-665, limits assumed); assay: FP, fluorescein-labelled PPKID4^P titrated with CBP KIX
T4 construct: domain: KIX; also called wild type CBP KIX; CBP MX

CBP KIX Y658A [12] = target: T5, CBP KIX Y658A (UniProt P45481 586-665, limits assumed); assay: FP with CBP KIX variant (text value; Table 3 prints 3.9 ± 0.3)
T5 construct: domain: KIX

HisKIX [13] = target: T1, HisKIX; assay: FP, fluorescein-labelled peptide titrated with HisKIX, 25 C
HisKIX [14] = target: T1, HisKIX; assay: as above; remark: listed apart in the source
[15] = target: T4, CBP KIX, wild type (Example 20); assay: FP, 25 nM fluorescein-labelled ligand titrated with CBP KIX, 25 C
CBP KIX Y658A [16] = target: T5, CBP KIX Y658A; assay: FP, 25 nM fluorescein-labelled ligand titrated with CBP KIX variant, 25 C
CBP KIX Y658F [17] = target: T6, CBP KIX Y658F (UniProt P45481 586-665, limits assumed); assay: as above
T6 construct: domain: KIX

CBP KIX K662A [18] = target: T7, CBP KIX K662A (UniProt P45481 586-665, limits assumed); assay: as above
T7 construct: domain: KIX

[19] = target: T8, CBP KIX Y650A (Example 20) (UniProt P45481 586-665, limits assumed); assay: as above
T8 construct: domain: KIX

CBP KIX L603A [20] = target: T9, CBP KIX L603A (UniProt P45481 586-665, limits assumed); assay: as above
T9 construct: domain: KIX

CBP KIX LL652-3AA [21] = target: T10, CBP KIX LL652-3AA (UniProt P45481 586-665, limits assumed); assay: as above
T10 construct: domain: KIX

CBP KIX K606A [22] = target: T11, CBP KIX K606A (UniProt P45481 586-665, limits assumed); assay: as above
T11 construct: domain: KIX

CBP KIX I657A [23] = target: T12, CBP KIX I657A (UniProt P45481 586-665, limits assumed); assay: as above
T12 construct: domain: KIX; also called 1657A

CBP KIX Q661A [24] = target: T13, CBP KIX Q661A (UniProt P45481 586-665, limits assumed); assay: as above
T13 construct: domain: KIX

CBP KIX E655A [25] = target: T14, CBP KIX E655A (UniProt P45481 586-665, limits assumed); assay: as above
T14 construct: domain: KIX

CBP KIX I660A [26] = target: T15, CBP KIX I660A (UniProt P45481 586-665, limits assumed); assay: as above
T15 construct: domain: KIX; also called 1660A

[27] = target: carbonic anhydrase II (Sigma); assay: FP, 50 nM fluorescein-labelled peptide titrated with carbonic anhydrase II, 25 C; remark: listed apart in the source
Target sequence in this assay (chain, as listed by the source): as the sequence (P00921 2-260) above

CBP KIX Y658A [28] = target: T5, CBP KIX Y658A; assay: FP with CBP KIX variant
CBP KIX Y658F [29] = target: T6, CBP KIX Y658F; assay: FP with CBP KIX variant
CBP KIX K662A [30] = target: T7, CBP KIX K662A; assay: FP with CBP KIX variant
[31] = target: T8, CBP KIX Y650A (Example 20); assay: FP with CBP KIX variant
CBP KIX L603A [32] = target: T9, CBP KIX L603A; assay: FP with CBP KIX variant
CBP KIX LL652-3AA [33] = target: T10, CBP KIX LL652-3AA; assay: FP with CBP KIX variant
CBP KIX K606A [34] = target: T11, CBP KIX K606A; assay: FP with CBP KIX variant
CBP KIX I657A [35] = target: T12, CBP KIX I657A; assay: FP with CBP KIX variant
CBP KIX L599A [36] = target: T16, CBP KIX L599A (UniProt P45481 586-665, limits assumed); assay: FP with CBP KIX variant
T16 construct: domain: KIX

CBP KIX Q661A [37] = target: T13, CBP KIX Q661A; assay: FP with CBP KIX variant
CBP KIX E655A [38] = target: T14, CBP KIX E655A; assay: FP with CBP KIX variant
CBP KIX I660A [39] = target: T15, CBP KIX I660A; assay: FP with CBP KIX variant
HisKIX [40] = target: T1, HisKIX; assay: FP with HisKIX; end of the range assigned by Table 1
CBP KIX L599A [41] = target: T16, CBP KIX L599A; assay: FP, 25 nM fluorescein-labelled ligand titrated with CBP KIX variant, 25 C

T13 sequence (P45481 586-665 Q661A limits assumed): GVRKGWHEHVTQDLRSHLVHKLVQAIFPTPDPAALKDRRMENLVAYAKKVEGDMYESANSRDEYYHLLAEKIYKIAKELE
T3 sequence (P10415 1-205): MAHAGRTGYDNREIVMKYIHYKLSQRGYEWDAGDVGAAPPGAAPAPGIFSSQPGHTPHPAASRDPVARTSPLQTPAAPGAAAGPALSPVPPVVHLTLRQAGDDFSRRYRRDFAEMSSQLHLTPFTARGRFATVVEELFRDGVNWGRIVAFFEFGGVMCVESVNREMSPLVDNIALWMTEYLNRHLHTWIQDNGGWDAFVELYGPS
T12 sequence (P45481 586-665 I657A limits assumed): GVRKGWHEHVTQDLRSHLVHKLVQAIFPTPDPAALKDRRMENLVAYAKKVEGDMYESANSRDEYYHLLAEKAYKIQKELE
T7 sequence (P45481 586-665 K662A limits assumed): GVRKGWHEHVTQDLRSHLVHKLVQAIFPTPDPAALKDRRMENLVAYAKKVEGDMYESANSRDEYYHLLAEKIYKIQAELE
T4 sequence (P45481 586-665 limits assumed): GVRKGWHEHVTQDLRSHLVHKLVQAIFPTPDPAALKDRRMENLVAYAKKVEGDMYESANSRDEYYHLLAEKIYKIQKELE
T14 sequence (P45481 586-665 E655A limits assumed): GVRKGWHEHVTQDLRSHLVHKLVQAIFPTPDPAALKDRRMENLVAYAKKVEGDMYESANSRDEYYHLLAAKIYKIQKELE
T9 sequence (P45481 586-665 L603A limits assumed): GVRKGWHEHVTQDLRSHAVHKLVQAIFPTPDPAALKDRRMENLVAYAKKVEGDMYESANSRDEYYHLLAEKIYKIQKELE
T1 sequence (P45481 586-672): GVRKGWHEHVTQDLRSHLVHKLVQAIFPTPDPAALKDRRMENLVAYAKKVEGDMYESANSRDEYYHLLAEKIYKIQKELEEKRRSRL
T6 sequence (P45481 586-665 Y658F limits assumed): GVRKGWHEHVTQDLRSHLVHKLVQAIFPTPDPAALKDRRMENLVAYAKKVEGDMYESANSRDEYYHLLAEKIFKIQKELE
T5 sequence (P45481 586-665 Y658A limits assumed): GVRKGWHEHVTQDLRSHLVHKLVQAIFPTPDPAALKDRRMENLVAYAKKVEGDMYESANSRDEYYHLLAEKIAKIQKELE
T11 sequence (P45481 586-665 K606A limits assumed): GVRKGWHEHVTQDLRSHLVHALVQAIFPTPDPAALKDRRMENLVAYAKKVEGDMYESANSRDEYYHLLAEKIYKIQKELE
T10 sequence (P45481 other isoform, or with tags, fused parts or gaps limits assumed): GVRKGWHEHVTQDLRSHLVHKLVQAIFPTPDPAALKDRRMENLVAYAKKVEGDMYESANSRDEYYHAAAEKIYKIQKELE
T8 sequence (P45481 586-665 Y650A limits assumed): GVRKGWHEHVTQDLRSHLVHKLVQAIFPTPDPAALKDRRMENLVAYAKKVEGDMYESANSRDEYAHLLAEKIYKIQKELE
T15 sequence (P45481 586-665 I660A limits assumed): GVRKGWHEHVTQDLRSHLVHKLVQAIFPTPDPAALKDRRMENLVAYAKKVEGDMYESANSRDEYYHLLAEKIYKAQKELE
T16 sequence (P45481 586-665 L599A limits assumed): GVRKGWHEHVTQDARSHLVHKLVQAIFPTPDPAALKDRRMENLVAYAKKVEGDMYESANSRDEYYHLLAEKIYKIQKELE

Binder | Krel = Kd (CalM)/Kd (HisKIX) (calmodulin (Sigma) [3]) | Kd (calmodulin (Sigma) [4]) | Kd [6] | Kd [7] | Kd (calmodulin (Sigma) [8]) | Kd (HisKIX [13]) | Kd (HisKIX [14]) | Kd [15] | Kd (CBP KIX Y658A [16]) | Kd (CBP KIX Y658F [17]) | Kd (CBP KIX K662A [18]) | Kd [19] | Kd (CBP KIX L603A [20]) | Kd (CBP KIX LL652-3AA [21]) | Kd (CBP KIX K606A [22]) | Kd (CBP KIX I657A [23]) | Kd (CBP KIX Q661A [24]) | Kd (CBP KIX E655A [25]) | Kd (CBP KIX I660A [26]) | Kd [27] | further results
B1 | 74 | 178000 nM |  |  |  |  |  |  |  |  |  |  |  |  |  |  |  |  |  |  | fold increase in affinity over KID-B^P (HisKIX [1]): > 20 fold; fold lower affinity than PPKID4^P (HisKIX [1]): 5 fold; ΔΔG relative to KID-B^P (HisKIX [1]): -1.8 kcal/mol; fold lower affinity than PPKID4^P (calmodulin (Sigma) [2]): 4 fold; Kd [5]: 97000 nM
B2 |  |  | 22000 nM | 363 nM | 25000 nM |  |  |  |  |  |  |  |  |  |  |  |  |  |  |  | 
B3 |  |  | 8600 nM | 352 nM | 25000 nM |  |  |  |  |  |  |  |  |  |  |  |  |  |  |  | fold better binding than p4101 [9]: ~2 fold
GPSQPTYPGDDAPVRRL[pS]FFYILLDLYLDAPGVC(acetamidofluorescein)-NH2 (designed binder, also called PPKID4 (phosphorylated)) [PPKID4^P] |  | 52000 nM |  |  |  | 515 nM | 515 nM | 610 nM | 3900 nM | 4100 nM | 3900 nM | 3000 nM | 3400 nM | 2900 nM | 3100 nM | 2700 nM | 1100 nM | 540 nM | 1100 nM | 106000 nM | Kd (calmodulin (Sigma) [10]): 51000 nM; Kd [11]: 610 nM; Kd (CBP KIX Y658A [12]): 4100 nM
GISWPTFEGDDAPVRRLSFFYILLDLYLDAPGVC(acetamidofluorescein)-NH2 (designed binder, also called PPKID6 (unphosphorylated)) [PPKID6^U] | > 112 | > 168000 nM |  |  |  | 1500 nM | 1500 nM | 540 nM | 1700 nM | 2800 nM | 1800 nM | 1300 nM | 2500 nM | 140 nM | 1200 nM | 3600 nM | 410 nM | 1700 nM | 6100 nM | 79000 nM | ΔΔG relative to wild type CBP KIX (CBP KIX Y658A [28]): 0.68 kcal/mol; ΔΔG relative to wild type CBP KIX (CBP KIX Y658F [29]): 0.97 kcal/mol; ΔΔG relative to wild type CBP KIX (CBP KIX K662A [30]): 0.71 kcal/mol; ΔΔG relative to wild type CBP KIX [31]: 0.52 kcal/mol; ΔΔG relative to wild type CBP KIX (CBP KIX L603A [32]): 0.91 kcal/mol; ΔΔG relative to wild type CBP KIX (CBP KIX LL652-3AA [33]): -0.8 kcal/mol; ΔΔG relative to wild type CBP KIX (CBP KIX K606A [34]): 0.47 kcal/mol; ΔΔG relative to wild type CBP KIX (CBP KIX I657A [35]): 1.1 kcal/mol; ΔΔG relative to wild type CBP KIX (CBP KIX L599A [36]): 1.1 kcal/mol; ΔΔG relative to wild type CBP KIX (CBP KIX Q661A [37]): -0.16 kcal/mol; ΔΔG relative to wild type CBP KIX (CBP KIX E655A [38]): 0.68 kcal/mol; ΔΔG relative to wild type CBP KIX (CBP KIX I660A [39]): 1.4 kcal/mol; fold enhancement in affinity over KID-AB^U (HisKIX [40]): ≥ 77 fold; fold enhancement in affinity over KID-B^U (HisKIX [40]): ≥ 198 fold; fold enhancement in affinity over peptide C^U (HisKIX [40]): 7 to 14 fold; Kd (CBP KIX L599A [41]): 3300 nM
